Measured values taken from patent publication US12320801B2, “Methods to spatially profile protease activity in tissue and sections” (Massachusetts Institute of Technology, priority 2017, dated 2025).
Like-named read-outs stand apart in the source and are kept apart here. Non-standard residues stand in square brackets, D forms with d. Primed or numbered codes have the meaning given here. No end group written: not given here. *: point of attachment. 5FAM = O=C1OC2(c3ccc(O)cc3Oc3cc(O)ccc32)c2ccc(C(=O)*)cc21; CPQ2 = quencher on the Lys side chain; PEG2′ = polyethylene glycol linker

Legend:
[1] = target: T1, thrombin (Homo sapiens, UniProt P00734); experiment: In vitro recombinant protease assay: cleavage of nanoparticle-presented FRET substrate by thrombin; type: biochemical; settings: for cleavage velocity (V) by thrombin: 6 μM substrate
T1 construct: purchased Haematologic Technologies
Experimental: In some embodiments, surface presentation of peptide substrates allows tuning of specificity between on- and off-target proteolytic cleavage rates of the substrate (e.g., MMP9 substrate). The cleavage kinetics of an MMP9 peptide substrate (PLGVRGK; SEQ ID NO: 15), flanked by a fluorescence resonance energy transfer (FRET) pair, at varying distances from the nanoparticle core (FIG. 3A) were tested. For this substrate, the rate of cleavage by MMP9 increased with increasing presentation distance (tether length) for all the substrate concentrations tested (0.5, 1.0, 2.0, 4.0 and 6.0 μM); as an example, cleavage velocity (V) increased from 0.24 to 0.96 nM s^−1 at 6 μM (FIG. 3B). Unexpectedly, this phenomenon was not generalizable across enzymes. For example, cleavage rates by the serine protease, thrombin, decreased with increasing presentation distance when the same substrate was tested (e.g., V at 6 μM of substrate decreased from 0.29 to 0.01 nM s^−1; FIG. 3C). Nor was it generalizable across substrates. […] The presentation of the MMP9 substrate on the ABNs described in this example exploited the increased on-target and decreased off-target protease cleavage that occurs for long tether lengths.
Nanoparticles coupled with intramolecularly quenched peptide substrates were reacted with recombinant proteases to identify cleavage velocities. NPs were mixed with 1% (w/v) BSA (Sigma) and incubated with recombinant proteases (MMP-9, Enzo Life Sciences; thrombin, Haematologic Technologies) in a final volume of 50 μl in enzyme-specific buffers (MMP9 buffer: 50 mM Tris, 150 mM NaCl, 5 mM CaCl2), 1 μM ZnCl2, pH 7.5; thrombin: PBS) in a 384-well plate for time-lapse fluorimetry to measure dequenching at 37° C. (SpectroMax Gemini EM microplate reader). Michaelis-Menten constants were determined by assessing initial cleavage velocities at different substrate concentrations (Prism 5.0, GraphPad). The final MMP-9 concentration was 100 nM and the final thrombin concentration was 7 nM.

[2] = tested on: matrix-metalloprotease; experiment: Cleavage of MMP9 substrate by OVCAR-8 conditioned media with and without MMP inhibitor; type: biochemical, human
[3] = target: mouse MMP9 (Mus musculus, UniProt P41245); experiment: Cleavage of MMP9 substrate by mouse MMP9; type: biochemical
Text: FIGS. 14A-14B show iRGD ABNz characterization.
Receptor expression on tumors varies by tumor type and patient. In this example, another ABN was produced using the tumor-penetrating ligand, iRGD (CRGDKGPDC; SEQ ID NO: 2). This peptide engages the same active-internalization pathway as LyP-1, but binds to αvβ3 or αvβ5 integrin heterodimers as its primary receptor, which are ectopically overexpressed in a large subset of cancers (FIG. 12A). The tumor-targeting peptides iRGD and LyP-1 were bound to ABNs and administered to an immunocompetent mouse model of colorectal liver metastasis (CLM), induced via an intrasplenic injection of p32-negative, integrin-positive and NRP-1-positive MC-26 cells (FIG. 12B-12C and FIGS. 13A-13C). MC-26 cells are derived from a mouse colorectal cancer line and secrete MMP9, which can be detected in the tumor nodules as well as in the tumor-adjacent liver, but not in non-tumor-bearing liver lobes (FIG. 12D). The stoichiometries for substrate conjugation on iRGD ABNs were similar to those used on the LyP-1 ABNs (FIG. 14A). […] This was consistent in the model of orthotopic ovarian cancer (FIG. 15D).

[4] = target: T2, MMP9 (Homo sapiens, UniProt P14780); experiment: In vitro recombinant protease assay: cleavage of nanoparticle-presented FRET substrate by MMP9; type: biochemical; settings: 6 μM substrate
T2 construct: purchased Enzo Life Sciences
Experimental: In some embodiments, surface presentation of peptide substrates allows tuning of specificity between on- and off-target proteolytic cleavage rates of the substrate (e.g., MMP9 substrate). The cleavage kinetics of an MMP9 peptide substrate (PLGVRGK; SEQ ID NO: 15), flanked by a fluorescence resonance energy transfer (FRET) pair, at varying distances from the nanoparticle core (FIG. 3A) were tested. For this substrate, the rate of cleavage by MMP9 increased with increasing presentation distance (tether length) for all the substrate concentrations tested (0.5, 1.0, 2.0, 4.0 and 6.0 μM); as an example, cleavage velocity (V) increased from 0.24 to 0.96 nM s^−1 at 6 μM (FIG. 3B). Unexpectedly, this phenomenon was not generalizable across enzymes. For example, cleavage rates by the serine protease, thrombin, decreased with increasing presentation distance when the same substrate was tested (e.g., V at 6 μM of substrate decreased from 0.29 to 0.01 nM s^−1; FIG. 3C). Nor was it generalizable across substrates. […]
Nanoparticles coupled with intramolecularly quenched peptide substrates were reacted with recombinant proteases to identify cleavage velocities. […] (SpectroMax Gemini EM microplate reader). Michaelis-Menten constants were determined by assessing initial cleavage velocities at different substrate concentrations (Prism 5.0, GraphPad). […]

[5] = tested on: OVCAR-8 tumor nodules; experiment: Blood biomarker HE4 ELISA in orthotopic OVCAR-8 ovarian cancer model; type: in vivo, mouse
Experimental: The ability of ABNs to: (1) detect low-burden ovarian cancer and (2) outperform a clinical blood biomarker were tested. Detection by ABNs was compared to the blood biomarker HE4, as OVCAR-8 cells produce relatively high levels of this protein, on a par with four other human ovarian cancer cell lines (FIGS. 10B-10C). […] This threshold of sensitivity is critical, as clinically approved imaging modalities can typically only resolve individual tumor nodules greater than 5 mm in diameter. Additionally, it has been estimated that to decrease serous ovarian cancer mortality by 50% with an annual screen, a test would have to be sensitive to tumors of <5 mm. […] It was confirmed that the tumor nodule retrieval methodology described in this example accounted for greater than 80% of the tumor burden by measuring luminescence pre- and post-resection (FIGS. 11D-11G). The tumor burden remaining can be attributed to uncollected macroscopic and microscopic lesions.
To generate an orthotopic model of human ovarian cancer, three- to four-week-old female NCr nude mice were injected intraperitoneally with 2×10^6 OVCAR-8 cells expressing firefly luciferase. Tumor burden was measured via luminescence using an in vivo imaging system (IVIS, PerkinElmer). Each mouse was sacrificed and the tumors were retrieved from all organs in the peritoneal space. Tumors were collected on a glass slide and scanned on a LI-COR Odyssey with 169 μm resolution. Widths and lengths were measured with ImageJ and tumor volume was calculated as described above for subcutaneous tumors. The reported tumor volumes for each group are the average of ten mice. Before tumor induction, urine measurements were performed by injecting mice with 0.5 μM LyP1 ABNs. Approximately 200 μl of blood was collected and spiked with EDTA to a final concentration of 5 mM, and the blood cells were pelleted. Plasma was stored at −20° C. prior to HE4 quantification. HE4 levels were measured using the HE4 quantikine ELISA kit.

T2 sequence (P14780 94-707): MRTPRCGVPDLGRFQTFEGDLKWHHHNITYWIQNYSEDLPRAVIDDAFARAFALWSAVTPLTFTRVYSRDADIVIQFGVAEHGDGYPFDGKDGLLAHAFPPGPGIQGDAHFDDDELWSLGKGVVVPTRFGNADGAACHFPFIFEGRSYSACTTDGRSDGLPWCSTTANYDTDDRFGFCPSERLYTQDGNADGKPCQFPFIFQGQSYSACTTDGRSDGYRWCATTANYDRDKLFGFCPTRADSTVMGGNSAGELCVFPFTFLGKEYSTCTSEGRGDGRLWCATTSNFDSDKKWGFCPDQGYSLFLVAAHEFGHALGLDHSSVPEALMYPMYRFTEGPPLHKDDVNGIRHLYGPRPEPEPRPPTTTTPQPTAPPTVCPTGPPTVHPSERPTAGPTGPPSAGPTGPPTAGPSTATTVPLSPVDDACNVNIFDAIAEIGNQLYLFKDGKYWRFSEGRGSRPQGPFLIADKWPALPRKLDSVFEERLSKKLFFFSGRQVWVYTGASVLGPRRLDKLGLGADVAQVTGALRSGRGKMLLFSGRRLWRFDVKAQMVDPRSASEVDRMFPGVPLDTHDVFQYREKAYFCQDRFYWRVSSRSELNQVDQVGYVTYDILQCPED
Chain of mouse MMP9 (P41245 108-730): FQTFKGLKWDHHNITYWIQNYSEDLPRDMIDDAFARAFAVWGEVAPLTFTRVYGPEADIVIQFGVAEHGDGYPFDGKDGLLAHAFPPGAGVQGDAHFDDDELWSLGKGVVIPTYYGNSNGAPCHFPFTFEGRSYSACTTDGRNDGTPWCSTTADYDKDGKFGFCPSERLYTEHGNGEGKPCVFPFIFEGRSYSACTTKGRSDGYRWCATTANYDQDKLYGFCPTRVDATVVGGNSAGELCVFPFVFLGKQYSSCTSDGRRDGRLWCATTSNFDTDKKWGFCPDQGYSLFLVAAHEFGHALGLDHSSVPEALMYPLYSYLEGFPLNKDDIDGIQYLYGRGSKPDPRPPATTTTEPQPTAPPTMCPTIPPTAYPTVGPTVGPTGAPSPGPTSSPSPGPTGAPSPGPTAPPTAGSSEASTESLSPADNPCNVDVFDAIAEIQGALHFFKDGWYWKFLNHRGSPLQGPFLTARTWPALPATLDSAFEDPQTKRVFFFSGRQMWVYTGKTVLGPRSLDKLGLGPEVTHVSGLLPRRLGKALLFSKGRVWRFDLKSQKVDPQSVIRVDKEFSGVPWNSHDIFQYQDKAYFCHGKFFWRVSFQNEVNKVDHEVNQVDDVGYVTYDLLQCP

Molecule: 5-FAM-GGfPRSGGGK(CPQ2)-PEG2-C [thrombin-selective substrate]
- optimal presentation length for thrombin cleavage ([1]; varying linker lengths on nanoparticle surface): optimally presented at an intermediate length

Molecule: CNC(=O)[C@@H](NC(=O)[C@H](CC(C)C)[C@H](O)C(=O)NO)C(C)(C)C [marimistat]
- inhibition of cleavage of MMP9 substrate by OVCAR-8 conditioned media [2]: can be inhibited
- inhibition of cleavage of MMP9 substrate by OVCAR-8 conditioned media ([2]; listed as Marimistat): can inhibit a significant portion of the cleavage

Molecule: 5-FAM-GGPLGVRGKK(CPQ2)-PEG2-C (5FAM-GGPLGVRGKK(CPQ2)[PEG2′]C) [MMP9 peptide substrate, MMP9 peptide substrate (PLGVRGK) flanked by a FRET pair, presented on nanoparticle surface at varying PEG tether lengths]
- cleavage by mouse MMP9 [3]: readily able to cleave
- cleavage velocity (V) by thrombin ([1]; longest presentation distance): 0.01 nM/s
- cleavage velocity (V) by thrombin ([1]; shortest presentation distance): 0.29 nM/s
- cleavage velocity (V) by MMP9 ([4]; longest presentation distance (tether length)): 0.96 nM/s
- cleavage velocity (V) by MMP9 ([4]; shortest presentation distance (tether length)): 0.24 nM/s

B1: HE4: human epididymis protein, clinical blood biomarker used as comparator diagnostic, measured by ELISA (protein, UniProt Q14508 31-124, looked up)
WAP four-disulfide core …: EKTGVCPELQADQNCTQECVSDSECADNLKCCSAGCATFCSLPNDKEGSCPQVNINFPQLGLCRDQCQVDSQCPGQMKCCRNGCGKVSCVTPNF
- limit of detection (tumor volume) ([5]; 3 weeks): 88 mm^3
- ROC-AUC ([5]; three weeks): 0.93
- ROC-AUC ([5]; two weeks): 0.51
